The values that follow come from patent publication US20030229003, “Use of transcription factors for treating inflammation and other diseases” (published 2003).

The target of data set [1] is T1, ESE-1 (ELF3) (Homo sapiens, UniProt P78545 P78545:1-371).
T1 sequence: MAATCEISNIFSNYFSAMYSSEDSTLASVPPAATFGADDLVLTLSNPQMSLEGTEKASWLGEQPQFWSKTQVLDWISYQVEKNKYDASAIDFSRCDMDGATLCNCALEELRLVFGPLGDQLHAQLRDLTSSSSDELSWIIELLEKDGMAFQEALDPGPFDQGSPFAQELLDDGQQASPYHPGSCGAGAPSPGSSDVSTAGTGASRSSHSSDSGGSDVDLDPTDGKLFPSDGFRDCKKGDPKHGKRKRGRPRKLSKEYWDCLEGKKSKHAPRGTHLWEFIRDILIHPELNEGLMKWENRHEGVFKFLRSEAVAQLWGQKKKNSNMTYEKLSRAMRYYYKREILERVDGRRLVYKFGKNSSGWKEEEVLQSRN
As to the kind of experiment: cell_activity.

The target of data set [2] is T1, ESE-1 (ELF3). As to the kind of experiment: EMSA; strong specific complex; data not shown. To be noted: tags: pCI/ESE-1, TNT rabbit reticulocyte lysate; label: 32P. Background: In EMSA bound probe runs differently from free probe, usually more slowly.
For data set [3], the target named is T1, ESE-1 (ELF3). As to the kind of experiment: EMSA. To be noted: tags: pCI/ESE-1, TNT rabbit reticulocyte lysate; label: 32P. As for the experimental part: Having identified putative targets for ESE- 1 we were also interested to determine whether ESE- 1 could specifically bind to Ets sites within the NOS2 promoter. An Ets binding site was identified which is highly homologous to the Ets consensus binding site for ESE- 1 (Oettgen, P., et al., 1999, J Biol Chem 274:29439-52). […] As is shown in FIG. 6, ESE- 1 binds equally well to both Ets sites.
In vitro transcription-translation was performed in TNT rabbit reticulocyte lysate (Promega) using the pCI/ESE- 1 vector as described (Oettgen, P., et al. et al. 1997, Mol Cell Biol 17:4419-33). EMSAs and supershift assays were performed using 2 μl of in vitro translation product or 3 μl of whole cell extract and (³²P)-labeled double stranded oligonucleotide probes in the presence or absence of competitor oligonucleotides (1, 10 or 100 ng) or antibodies as described (Akbarali, Y., et al. 1996. J Biol Chem 271:26007-12). Whole cell extracts were made from U- 138 Mg cells after incubation with IL-1β for 0, 3, and 8 hours using as lysis buffer 1% Triton X- 100, 25 mM glycylglycine pH7.8, 15 mM MgSO₄, 4 mM EGTA, 1 mM dithiothreitol, phenylmethylsulfonyl fluoride, Aprotinin, and Pepstatin. All antibodies for super-shift assays (2 μl per assay) were obtained from Santa-Cruz Technologies (CA) (Oettgen, P., et al. 1996, Mol Cell Biol 16:5091-106).

In turn, COX-2 promoter -170/+103 showed an activity with ESE-1 (ELF3) [1] (luciferase, RAW 264.7) greater than 10 fold. In turn, NOS2 promoter -234/+31 gave an activity in the data set with ESE-1 (ELF3) [1] (luciferase transactivation, RAW cells, promoter length in Example 1M not stated) of 12 fold.

B1: COX-2 promoter Ets site 3 (dsDNA)
DNA 1: CGAAAAGGCGGAAAGAAACAGT
DNA 2: ACTGTTTCTTTCCGCCTTTTCG
Regarding B1, the binding result with ESE-1 (ELF3) [2] was “binds”.

B2: COX-2 promoter Ets site 1 (dsDNA)
DNA 1: GCACGTCCAGGAACTCCTCAGC
DNA 2: GCTGAGGAGTTCCTGGACGTGC
With B2, in the data set with ESE-1 (ELF3) [2], the binding result was “binds”.

B3: murine PSP promoter Ets site (dsDNA)
DNA 1: TCGACGAACATCCAGGAAATAGGGCTC
DNA 2: TCGAGAGCCCTATTTCCTGGATGTTCG
B3: in the data set with ESE-1 (ELF3) [3], the binding result is “binds”.
